Laboratory results taken from IntAct's records for PubMed 18555782.

Molecular target: hsp7f_yeast SSE1 (UniProt P32589)
Sequence (P32589 whole entry): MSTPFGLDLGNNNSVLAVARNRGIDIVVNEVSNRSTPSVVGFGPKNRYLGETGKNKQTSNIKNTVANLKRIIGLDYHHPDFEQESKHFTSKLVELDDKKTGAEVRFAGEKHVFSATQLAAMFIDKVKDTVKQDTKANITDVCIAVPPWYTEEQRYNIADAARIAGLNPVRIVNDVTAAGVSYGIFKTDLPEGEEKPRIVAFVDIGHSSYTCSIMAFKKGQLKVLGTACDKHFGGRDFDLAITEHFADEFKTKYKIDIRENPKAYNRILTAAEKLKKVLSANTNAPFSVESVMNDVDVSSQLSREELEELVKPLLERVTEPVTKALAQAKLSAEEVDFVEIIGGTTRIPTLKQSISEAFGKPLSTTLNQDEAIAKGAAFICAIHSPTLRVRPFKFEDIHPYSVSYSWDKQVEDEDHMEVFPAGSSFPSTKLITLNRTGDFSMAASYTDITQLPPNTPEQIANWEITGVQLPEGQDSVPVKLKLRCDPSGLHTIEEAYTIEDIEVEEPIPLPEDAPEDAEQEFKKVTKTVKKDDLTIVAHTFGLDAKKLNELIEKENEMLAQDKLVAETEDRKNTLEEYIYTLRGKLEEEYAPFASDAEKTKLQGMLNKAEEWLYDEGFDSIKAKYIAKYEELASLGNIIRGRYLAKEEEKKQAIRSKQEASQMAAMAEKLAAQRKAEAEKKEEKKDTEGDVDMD

effect of a mutation on the interaction	Substance
decreasing interaction	Heat shock protein SSA1 (Saccharomyces cerevisiae), P10591 A297E
decreasing interaction	Heat shock protein SSA1 (Saccharomyces cerevisiae), P10591 Q31A
